Assay [1] deals with MDM2 SWIB domain from Anguilla anguilla (European eel) (Anguilla anguilla (European eel)). The assay can be described thus: fluorescence polarisation; displacement: complex of MDM2 (0.2-2 μM) and FITC-p53TAD_(human)^15–26 (15 nM) displaced by increasing unlabeled p53TAD peptide or p53TAD^full-length; KD calculated from IC50 (Nikolovska-Coleska et al. 2004); 20 mM sodium phosphate pH 7.4, 150 mM NaCl, 1 mM TCEP.

For assay [2], the target named is MDM2 SWIB domain from Channa argus (Channa argus). The description is as above.
For assay [3], the target named is MDM2 SWIB domain from Clupea harengus (Atlantic herring) (Clupea harengus (Atlantic herring)). The assay is described as above.
In assay [4] the target is MDM2 SWIB domain from Lepisosteus oculatus (spotted gar) (Lepisosteus oculatus (spotted gar)). The description is as above.
The target in assay [5] is MDM2 SWIB domain from Maylandia zebra (Maylandia zebra). The description is as above.
Assay [6] has as its target MDM2 SWIB domain from Oncorhynchus kisutch (coho salmon) (Oncorhynchus kisutch (coho salmon)). The assay is described as above.
Assay [7] deals with MDM2_(D.rerio) SWIB domain (Danio rerio (zebrafish)). The assay is described as above.
For assay [8], the target named is MDM2 SWIB (Homo sapiens) (UniProt Q00987). Conditions: cited from earlier work.
Assay [9] deals with MDM2_(D.rerio) SWIB domain (Danio rerio (zebrafish)). The assay can be described thus: ITC; MicroCal iTC200, 25 °C; D. rerio MDM2 11 μM in the cell, p53TAD 118 or 116 μM in the syringe; 20 mM sodium phosphate pH 7.4, 150 mM NaCl, 1 mM TCEP. A general note: Isothermal titration calorimetry measures the heat released or taken up as one component is titrated into another.
Assay [10] deals with MDM2_(D.rerio) SWIB domain. The assay can be described thus: fluorescence polarization competition assay. For orientation: Fluorescence polarisation rises when a labelled molecule tumbles more slowly, as on binding a larger partner.
The target in assay [11] is MDM2 SWIB domain from Takifugu rubripes (Japanese puffer) (Takifugu rubripes (Japanese puffer)). In words: fluorescence polarisation; displacement: complex of MDM2 (0.2-2 μM) and FITC-p53TAD_(human)^15–26 (15 nM) displaced by increasing unlabeled p53TAD peptide or p53TAD^full-length; KD calculated from IC50 (Nikolovska-Coleska et al. 2004); 20 mM sodium phosphate pH 7.4, 150 mM NaCl, 1 mM TCEP.

Broadly, the Kd is a measure of binding affinity in units of concentration. For “Anguilla anguilla (European eel) p53TADP1 p53TAD^full-length (domain or fragment)”, the Kd in [1] is 230 nM.
On the same count and under the same terms, to “Anguilla anguilla p53TADP2 p53TAD^full-length (domain or fragment)” belongs 60 nM.
In the case of “Channa argus p53TADP1 p53TAD^full-length (domain or fragment)”, the dissociation constant Kd in [2] is 100 nM.
With “Clupea harengus (Atlantic herring) p53TADP1 p53TAD^full-length (domain or fragment)”, the Kd in assay [3] is 190 nM.
In the case of “Clupea harengus p53TADP2 p53TAD^15–27 (peptide)”, the dissociation constant Kd in [3] is 600 nM.
Regarding “Clupea harengus p53TADP2 p53TAD^full-length (domain or fragment)”, the Kd in assay [3] was 40 nM.
Regarding “Lepisosteus oculatus (spotted gar) p53TAD^full-length (domain or fragment)”, in assay [4], the Kd is 85 nM.
“Maylandia zebra p53TADP1 p53TAD^full-length (domain or fragment)”: in assay [5], the dissociation constant Kd is 190 nM.
As to “Oncorhynchus kisutch (coho salmon) p53TADP1a p53TAD^full-length (domain or fragment)”, the dissociation constant Kd in [6] was 48 nM.
Still for that read-out and setting: to “Oncorhynchus kisutch p53TADP1b p53TAD^full-length (domain or fragment)” belongs 60 nM.
As to “Oncorhynchus kisutch p53TADP2 p53TAD^full-length (domain or fragment)”, the Kd in assay [6] is 70 nM.
For “alternative p53TAD^17–32_(D.rerio) (P79734) (peptide)”, in [7], the Kd was 580 nM.
Take p53 TAD (from UniProt P04637): the Kd in assay [8] is 100 nM.
As to p53TAD^17–32_(D.rerio) (peptide), the Kd in [9] was 300 nM; in assay [7], 180 nM.
As to p53TAD^17–32_(D.rerio) I28A, the dissociation constant (Kd) in [10] worked out at 460 nM.
In the case of “p53TAD_(D.rerio)^full-length (domain or fragment)”, the dissociation constant Kd in assay [9] was 100 nM; in assay [7] it was 49 nM.
Take p53TAD_(H.sapiens)^15–27 (peptide): the dissociation constant (Kd) in assay [3] is 1800 nM; in assay [2] it was 2100 nM; in assay [6] it was 780 nM; in assay [5], 1700 nM; in assay [1] it was 900 nM; in assay [4] it was 370 nM. Further, the dissociation constant (Kd) in [11] was 1100 nM.
